Results on three molecules are retold here after patent US20240043551A1 (ADLAI NORTYE BIOPHARMA, published 2024).

In assay [1] the target is T1, His tagged human TNFR2 ECD (Acro Biosystem, TN2-H5227) (human, UniProt P20333 23-257).
T1 construct: extracellular domain; Bought protein; also called TNFR2-His; hTNFR2-His; not shown: His tag
T1 sequence (looked up): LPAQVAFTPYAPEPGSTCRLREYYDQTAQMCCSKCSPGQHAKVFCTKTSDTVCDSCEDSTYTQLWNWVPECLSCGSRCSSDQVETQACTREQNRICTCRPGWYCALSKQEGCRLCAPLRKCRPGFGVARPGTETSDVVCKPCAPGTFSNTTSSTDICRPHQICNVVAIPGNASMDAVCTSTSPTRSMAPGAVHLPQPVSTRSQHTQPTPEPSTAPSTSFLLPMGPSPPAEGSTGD
The assay is described as follows: ELISA, TNFR2-His coated, antibody 0.006 and 0.06 µg/well. A general note: An ELISA detects its analyte on a solid surface through an enzyme-linked reagent.

For assay [2], the target named is T2, Human TNFR1 (Acro Biosystem, TN1-H5222) (human, UniProt P19438 30-211).
T2 construct: Bought protein; also called TNF receptor type 1; CD120a
T2 sequence (looked up): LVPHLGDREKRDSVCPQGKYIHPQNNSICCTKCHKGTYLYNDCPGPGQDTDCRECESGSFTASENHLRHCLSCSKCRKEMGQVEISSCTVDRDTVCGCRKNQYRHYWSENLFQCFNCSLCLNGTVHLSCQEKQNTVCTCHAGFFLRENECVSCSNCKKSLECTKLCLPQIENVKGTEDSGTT
The assay is described as follows: ELISA, receptor coated at 1 µg/mL. On the procedure: (§1) Human TNFR2 (Acro Biosystem, TN2-H5227), Human TNFR1 (Acro Biosystem, TN1-H5222), Cynomolgus TNFR2 (Sino Biological, 90102-CO8H) or mouse TNFR2 (R&D systems, 426-R2-050/CF) was coated on high binding polystyrene flat bottom micro-titer plates (Thermo Scientific, 3455) in PBS (PH=7.4, Gibco,10010-031) at 1 μg/mL and 100 μL per well. Plates were incubated at 4° C. overnight.
(§2) Plates were warmed up to room temperature the next day and washed with 200 μL PBS containing 0.1% Tween 20 (Life technologies, 003005) per well for 3 times. Plates were blocked with 200 μL PBS buffer containing 1% BSA (Fisher Scientific, BP1600-100) per well for 1 hour at 37° C. Antibodies was titrated from 5 μg/mL in a 5-fold dilution series, distributed 100 μL per well and incubated at 37° C. for 1 hour. Human IgG1 isotype control (BioxCell, BE0297) was used as negative control. Plates were washed with 200 μL PBS containing 0.1% Tween 20 (Life technologies, 003005) per well for 3 times. Goat anti-Human IgG Fc Secondary Antibody-HRP conjugate (Invitrogen, A18817) were distributed at 0.5μg/mL and 100 μL per well to detect bound antibodies. After 1-hour incubation of secondary antibody at 37° C., plates were washed with 200 μL PBS containing 0.1% Tween 20 (Life technologies, 003005) per well for 3 times. Plates were developed using TMB Substrate Solution (eBioscience, 00-4201-56) and stopped with ELISA stop solution (Invitrogen, SSO4). The level of bound antibodies was determined by reading absorbance at 450 nm. Mouse anti-human TNFR1 antibody (ThermoFisher Scientific, MA1-81005) and goat anti mouse IgG secondary antibody-HRP conjugate (Invitrogen, 62-5520) were used as positive control for human TNFR1 detection. Armenian Hamster anti-mouse TNFR2 antibody (InVivoMab, BE0247) and HRP-Goat anti-Armenian Hamster IgG (H+L) Secondary Antibody (Invitrogen, PA1-32045) were used as positive control for mouse TNFR2 detection.

Assay [3] has as its target T3, mouse TNFR2 (R&D systems, 426-R2-050/CF) (mouse, UniProt P25119 23-258).
T3 construct: Bought protein
T3 sequence (looked up): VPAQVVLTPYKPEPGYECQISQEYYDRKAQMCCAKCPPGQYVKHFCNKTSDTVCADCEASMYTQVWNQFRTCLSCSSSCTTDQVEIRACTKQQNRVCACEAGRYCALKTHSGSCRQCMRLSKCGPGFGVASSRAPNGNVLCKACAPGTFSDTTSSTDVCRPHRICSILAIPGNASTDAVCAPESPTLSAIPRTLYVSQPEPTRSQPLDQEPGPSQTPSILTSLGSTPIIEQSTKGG
The assay is described as follows: ELISA, receptor coated at 1 µg/mL. On the procedure:
as §1, §2

In assay [4] the target is T4, Full length human TNFR2 on Jurkat E6-1 cells (Clone NO.3) (human, UniProt P20333 23-461).
T4 construct: whole, on cells; also called human TNFR2+ Jurkat cells; hTNFR2 Jurkat
T4 sequence (looked up): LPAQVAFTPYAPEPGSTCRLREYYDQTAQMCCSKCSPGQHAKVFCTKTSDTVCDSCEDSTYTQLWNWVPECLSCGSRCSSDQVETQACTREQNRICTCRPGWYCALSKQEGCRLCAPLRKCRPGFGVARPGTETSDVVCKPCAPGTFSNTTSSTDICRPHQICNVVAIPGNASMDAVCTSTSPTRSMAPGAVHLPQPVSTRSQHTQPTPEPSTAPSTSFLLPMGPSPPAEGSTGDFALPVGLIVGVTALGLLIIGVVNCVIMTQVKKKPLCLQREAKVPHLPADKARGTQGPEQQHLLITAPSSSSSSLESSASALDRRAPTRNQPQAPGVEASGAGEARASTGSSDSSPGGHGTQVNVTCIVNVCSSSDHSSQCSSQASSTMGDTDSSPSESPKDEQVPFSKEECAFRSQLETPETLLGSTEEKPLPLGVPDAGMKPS
The assay is described as follows: FACS on human TNFR2+ Jurkat Clone No.3, biotinylated antibody with streptavidin-PE. The protocol:
FACS analysis was used to evaluate the binding of purified anti-TNFR2 antibody candidates produced from example 6 to cell surface TNFR2 target. Anti-human TNFR2 antibodies and negative control IgG were biotinylated using a EZ-Link™ Micro Sulfo-NHS-Biotinylation Kit (Thermo Fisher Scientific, 21925) according to manufacturer's instructions. Biotinylated antibodies (100 μg/mL) were then incubated with Halt™ Protease Inhibitor Cocktail (100X, Thermo Scientific, 1862209) and 80 μg/mL Streptavidin-R-Phycoerythrin (PE) conjugate (Invitrogen, S21388). Antibodies were stored at 4° C. until use. 5×10⁵ Clone No.3 of human TNFR2⁺ Jurkat cells were distributed each well and blocked with human TruStain FcX™ (Biolegend, 422302) for 10 minutes at room temperature before stained with a serially diluted PE conjugated anti-human TNFR2 antibodies or hIgG1 starting from 50 μg/mL in a 5-fold dilution fashion for 30 minutes at 4° C. PE-anti hTNFR2 (Clone MR2-1, Thermo fisher #TNFR7504) was used as positive control. The geometric mean fluorescent intensity was measured on Sony SA3800 cell analyzer. Data were analyzed using Flowjo Software (Tree star Inc).

In assay [5] the target is T5, rat TNFR2 (R&D systems, 8348-R2-050) (rat, UniProt Q80WY6 23-258).
T5 construct: Bought protein
T5 sequence (looked up): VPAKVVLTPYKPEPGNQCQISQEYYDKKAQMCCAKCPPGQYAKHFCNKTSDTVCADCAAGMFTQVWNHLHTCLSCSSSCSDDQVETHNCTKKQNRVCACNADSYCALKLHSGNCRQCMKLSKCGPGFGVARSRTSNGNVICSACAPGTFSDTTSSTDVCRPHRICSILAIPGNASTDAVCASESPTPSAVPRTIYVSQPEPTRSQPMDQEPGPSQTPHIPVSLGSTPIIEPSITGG
Kind of assay: ELISA, receptor coated at 1 µg/ml. The protocol:
Plates were incubated at 4° C. overnight. Antibodies was titrated from 100 μg/ml in a 5-fold dilution series, and distributed 100 μL, per well and incubated at 37° C. for 1 hour. Human IgG1 isotype control (BioxCell, BE0297) was used as negative control. TNFR2 Polyclonal Antibody (Invitrogen, PAS-80159) and HRP conjugated Goat anti-Rabbit IgG Fc Secondary Antibody (Invitrogen, A16116) were used as positive control for rat TNFR2 detection.

Assay [6] has as its target T1, His tagged human TNFR2 ECD (Acro …). Kind of assay: ELISA, receptor coated at 1 µg/mL, antibody titrated from 5 µg/mL. On the procedure: as §1, §2
Assay [7] has the same target. Kind of assay: monoclonal phage ELISA, hTNFR2-His coated, anti-M13-HRP. On the procedure: A 96-well ELISA plate was coated with hTNFR2-His and blocked with PBS buffer containing 2% BSA at […], of pre-blocked phage solution was added to the plate and incubated at 37° C. for 30 min. After the plate was washed twice with PBS buffer containing 0.05% Tween 20, phage binding was detected by HRP-conjugated anti-M13 antibody (GE Healthcare). Top binders were picked and the corresponding phagemids in TG1 cell were isolated and subjected to DNA sequencing to obtain VH/VL sequence. The sequences of TN1-36_VH and TN1-36_VL are set forth as SEQ ID NO: 1 and SEQ ID NO: 2, respectively. Antibody numbering and CDR annotation are performed according to IMGT scheme respectively.

B1: TN36-2 (antibody, human IgG1, V domains shown)
VH: EVQLVESGGGLIQPGGSLRLSCAASGFSLSSSAVSWVRQAPGKGLEWIGAIGSGGTSYYSNWAKSRFTISRDNSKNTLYLQMNSLRAEDTAVYYCARDPNSSDYPYGAYGMGLWGRGTLVTVSS
VL: DIQMTQSPSSLSASVGDRVTITCQVSQSISSYLSWYQQKPGKAPKLLIYYASTLASGVPSRFSGSGSGTDFTLTISSLQPEDFATYYCQQGYITSNVGNAFGGGTKVEIK
notes: Humanized; also called AL2/AL8
Turning to B1, the binding result is “binds” in assay [1]; “no binding (tested: titrated from 5 µg/mL)” in assay [2]; “no binding (tested: titrated from 5 µg/mL)” in assay [3]; “binds” in assay [4]; “no binding (tested: titrated from 100 µg/ml)” in assay [5].

B2: TN36-9 (antibody, human IgG1, V domains shown)
VH: EVQLVESGGGLIQPGGSLRLSCAASGFSLSSSAVSWVRQAPGKGLEWIGAIGSGGTSYYSNWAKSRFTISRDNSKNTLYLQMNSLRAEDTAVYFCARDPNSSDYPYGAYGMGLWGRGTLVTVSS
VL: DIQLTQSPSFLSASVGDRVTITCQVSQSISSYLSWYQQKPGKAPKLLIYYASTLASGVPSRFSGSGSGTEFTLTISSLQPEDFATYYCQQGYITSNVGNAFGGGTKVEIK
notes: Humanized; also called AL3/AL11
On to B2, for which the binding result is “binds” in assay [6]; “no binding (tested: titrated from 5 µg/mL)” in assay [2]; “no binding (tested: titrated from 5 µg/mL)” in assay [3]; “binds” in assay [4]; “no binding (tested: titrated from 100 µg/ml)” in assay [5].

B3: TN1-36 scFv on phage (scFv, V domains shown)
VH: QQSVKESEGGLFKPTDTLTLTCTVSGFSLSSSAVSWVRQAPGNGLEWIGAIGSGGTSYYSNWAKSRSTITRDTNLNTVTLKMTSLTAADTATYFCARDPNSSDYPYGAYGMGLWGPGTLVTVSS
VL: ELDLTQTPASVEVAAGGTVTINCQVSQSISSYLSWYQQKPGQPPKLLIYYASTLASGVPSRFSGSGSGTEFTLTISGVQCDDAATYYCQQGYITSNVGNAFGGGTEVVVK
notes: also called TN1-36_VH/TN1-36_VL
Consider B3, for which the binding result in assay [7] is reported as “binds”.
